In PMC11931385, “Structural and functional analysis of cancer-associated missense variants in the retinoblastoma protein pocket domain” (The Journal of Biological Chemistry, 2025):
Positions count from the first letter of the chain named. Numbers in names are those of the source. No end group written: not given here. TMR = tetramethyl rhodamine dye

Experiments:
Assay in all cases: fluorescence polarisation; 37 °C, after the 25 °C reading ramped over 7 min to 37 °C and 2 min incubation; unlabeled Rb^P against 1.5 nM TMR-E2F1^TD or 7.5 nM TMR-E7^LxCxE; 25 mM Tris pH 8.0, 200 mM NaCl, 1 mM DTT, 0.1% Tween-20; apparent Kd
Details in all cases: both partners purified
Rb^P H699P = target: T1, Rb^P H699P (human, UniProt P06400 380-788, H699P)
T1 construct: also called variant 63
T1 sequence (looked up): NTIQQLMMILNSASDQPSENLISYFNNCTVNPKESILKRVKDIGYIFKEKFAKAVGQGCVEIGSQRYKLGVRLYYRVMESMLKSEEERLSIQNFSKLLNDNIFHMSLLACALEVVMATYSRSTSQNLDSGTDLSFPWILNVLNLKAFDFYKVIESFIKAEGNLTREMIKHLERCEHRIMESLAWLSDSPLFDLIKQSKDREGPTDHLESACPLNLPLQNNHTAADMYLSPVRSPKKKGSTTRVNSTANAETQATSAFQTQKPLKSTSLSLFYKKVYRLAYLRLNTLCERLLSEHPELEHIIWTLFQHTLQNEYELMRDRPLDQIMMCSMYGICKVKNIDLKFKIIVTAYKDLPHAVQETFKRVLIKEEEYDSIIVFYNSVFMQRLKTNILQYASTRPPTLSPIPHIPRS

Rb^P R741H = target: T2, Rb^P R741H (human, UniProt P06400 380-788, R741H)
T2 construct: also called variant 69
T2 sequence (looked up): T1 sequence (looked up) with P320H, R362H

Rb^P S612P = target: T3, Rb^P S612P (human, UniProt P06400 380-788, S612P)
T3 construct: also called variant 39
T3 sequence (looked up): T1 sequence (looked up) with S233P, P320H

Rb^P E533K = target: T4, Rb^P E533K (human, UniProt P06400 380-788, E533K)
T4 construct: also called variant 22
T4 sequence (looked up): T1 sequence (looked up) with E154K, P320H

Rb^P Q504E = target: T5, Rb^P Q504E (human, UniProt P06400 380-788, Q504E)
T5 construct: also called variant 19
T5 sequence (looked up): T1 sequence (looked up) with Q125E, P320H

B1: TMR-E2F1^TD, peptide of the E2F1 transactivation domain (peptide)
peptide: {TMR}-GEGIRDLFDCDFGDLTPLD
notes: also called E2F^TD; source: synthetic peptide, bought: GenScript
B1 showed a Kd (Rb^P H699P) of 68 nM, a Kd (Rb^P R741H) of 41 nM and a Kd (Rb^P S612P) of 49 nM. For the same binder, the Kd (Rb^P E533K) was 1800 nM and the Kd (Rb^P Q504E) was 33 nM.

B2: TMR-E7^LxCxE, LxCxE peptide of the E7 oncoprotein from HPV (peptide)
peptide: DLYCYEQLN
modifications: also: TMR label, position not given here
notes: source: synthetic peptide, bought: GenScript
B2 was tested, and the Kd (Rb^P H699P) was 14 nM, the Kd (Rb^P R741H) was 21 nM and the Kd (Rb^P S612P) was 17 nM. It also gave a Kd (Rb^P E533K) of 14 nM and a Kd (Rb^P Q504E) of 11 nM.
